The source of these data is patent US20130280279A1 (Hoffmann-La Roche, published 2013).

Assay [1] addresses T1, digoxigenated protein Dig-BP4.
T1 chain: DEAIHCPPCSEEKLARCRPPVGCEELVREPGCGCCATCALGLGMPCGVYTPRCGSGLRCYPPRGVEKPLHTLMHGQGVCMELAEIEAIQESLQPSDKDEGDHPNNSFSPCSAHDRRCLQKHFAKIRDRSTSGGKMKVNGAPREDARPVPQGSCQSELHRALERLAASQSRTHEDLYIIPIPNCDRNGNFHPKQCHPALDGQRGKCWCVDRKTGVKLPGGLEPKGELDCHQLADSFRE
Briefly: SPR (Biacore), antibody captured by anti-human IgG, DIG-BP4 injected. A general note: Surface plasmon resonance follows binding to a sensor surface in real time, without labels.
Experimental: (§1) Surfaces were blocked with an injection of 1 M ethanolamine/HCl pH 8.5. […] To evaluate the functionality of the recombinant <Dig> derivatives, binding of the recombinant hu<Dig> modules, incl.
(§2) Anti-mouse IgG antibody was immobilized on the surface of a CM5 biosensor chip in the same fashion as described above. […] The samples to be analyzed were diluted in HBS-P (10 mM HEPES, pH 7.4, 150 mM NaCl, 0.005% Surfactant P20) and injected at a flow rate of 5 μl/min. The contact time (association phase) was 3 min for the antibodies at a concentration between 1 and 5 nM. […] The contact time (association phase) was 3 min, the dissociation time (washing with running buffer) 5 min for each molecule at a flow rate of 30 μl/min. All interactions were performed at 25° C. (standard temperature). […] Signals were detected at a rate of one signal per second.

Assay [2] shares this target. As to the kind of experiment: SPR (Biacore), antibody captured by anti-mouse IgG, DIG-BP4 injected.
Experimental: as §1, §2

B1: humanized <Dig> IgG (antibody, V domains shown)
VH: QVQLVESGGGLVKPGGSLRLSCAASGFTFSDYAMSWIRQAPGKGLEWVSSINIGATYIYYADSVKGRFTISRDNAKNSLYLQMNSLRAEDTAVYYCARPGSPYEYDKAYYSMAYWGQGTTVTVSS
VL: DIQMTQSPSSLSASVGDRVTITCRASQDIKNYLNWYQQKPGKAPKLLIYYSSTLLSGVPSRFSGSGSGTDFTLTISSLQPEDFATYYCQQSITLPPTFGGGTKVEIKR
notes: also called hu<Dig> IgG; DIGHu2
One may read the Kd as the concentration at which binding is half-saturated. In assay [1], B1 came in with a Kd of under 0.076 nM.

B2: murine <Dig> IgG1 kappa from mouse hybridoma clone 19-11 (antibody, V domains shown)
VH: EVQLVESGGGLVKPGGSLKLSCAVSGFTFSDYAMSWIRQTPENRLEWVASINIGATYAYYPDSVKGRFTISRDNAKNTLFLQMSSLGSEDTAMYYCARPGSPYEYDKAYYSMAYWGPGTSVTVSS
VL: DVQMTQSTSSLSASLGDRVTISCRASQDIKNYLNWYQQKPGGTVKLLIYYSSTLLSGVPSRFSGRGSGTDFSLTITNLEREDIATYFCQQSITLPPTFGGGTKLEIK
notes: also called murine DIG-IgG 19-11; mu<Dig> 19-11
In assay [2], B2 gave a Kd of 0.033 nM.
